Data from paper PMC9603813, “Genome-Wide Analysis Reveals that PhoP Regulates Pathogenicity in Riemerella anatipestifer”.

Key:
Conditions in all cases: protein: recombinant; tags: His6 (pET-28a); chain copies: 2; label: 5' biotin on strand 1; blunt
His6-PhoP [1] = biological target: T1, His6-PhoP (Riemerella anatipestifer RA-YM, UniProt E4TAE7 2-228); assay: EMSA
T1 sequence: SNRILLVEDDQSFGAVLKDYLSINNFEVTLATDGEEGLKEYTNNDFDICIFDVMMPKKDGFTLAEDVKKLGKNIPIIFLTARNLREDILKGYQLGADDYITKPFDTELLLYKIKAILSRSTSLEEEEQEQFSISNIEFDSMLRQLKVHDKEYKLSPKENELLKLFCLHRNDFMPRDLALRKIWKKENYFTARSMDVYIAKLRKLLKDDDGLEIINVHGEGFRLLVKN

His6-PhoP [2] = biological target: T1, His6-PhoP; assay: EMSA; unphosphorylated
His6-PhoP [3] = biological target: T1, His6-PhoP; assay: EMSA; phosphorylated by acetyl phosphate
His6-PhoP-DBD = biological target: T2, His6-PhoP-DBD (Riemerella anatipestifer RA-YM, UniProt E4TAE7 130-228); assay: EMSA
T2 sequence: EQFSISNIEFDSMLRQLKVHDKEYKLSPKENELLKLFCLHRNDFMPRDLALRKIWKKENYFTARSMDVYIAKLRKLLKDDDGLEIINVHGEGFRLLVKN

| Binder | binding result (His6-PhoP [1]) | Kd (His6-PhoP [2]) [nM] | Kd (His6-PhoP [3]) [nM] | binding result (His6-PhoP-DBD) |
| --- | --- | --- | --- | --- |
| KYF39_07405 (OMPbB) probe (dsDNA) DNA 1: ATAAAGTGGCAAATTTAACTTTAATAATTAAAAGA DNA 2: TCTTTTAATTATTAAAGTTAAATTTGCCACTTTAT | binds |  |  |  |
| KYF39_06865 motif probe (dsDNA) DNA 1: CGTTAAAAAATAAAGCGAGGTTTTGTTGTTTTAAA DNA 2: TTTAAAACAACAAAACCTCGCTTTATTTTTTAACG | binds |  |  |  |
| KYF39_00905 (transporter) probe (dsDNA) DNA 1: CAAAAAATATTTCATTAACAGAATAGACAATCATA DNA 2: TATGATTGTCTATTCTGTTAATGAAATATTTTTTG |  | 39.2 | 39.5 |  |
| KYF39_00915 (transposase) probe (dsDNA) DNA 1: TGAAAATTTCAAATTTAACTAAAGCTTATAGCAAT DNA 2: ATTGCTATAAGCTTTAGTTAAATTTGAAATTTTCA |  | 29.8 | 33.9 |  |
| phoPR motif probe (dsDNA) DNA 1: AAACTCATAATAATCTGTTAAAAAACTCGTTTTTA DNA 2: TAAAAACGAGTTTTTTAACAGATTATTATGAGTTT | binds |  |  | no binding |
| dedA motif probe (dsDNA) DNA 1: ATCTATAAAGAGATTTAACAAATTTTATAATTCTA DNA 2: TAGAATTATAAAATTTGTTAAATCTCTTTATAGAT | binds |  |  |  |
